From patent US20260049138A1 (Chugai, published 2026)

Target: T1, CD3ε homodimer protein (human, UniProt P07766 23-126, limits assumed, sulfo-tag or biotin label in the ECL assays; amine-coupled to the chip in SPR)
T1 construct: also called human CD3ε homodimer protein; CD3 (CD3ε)
Assay: SPR Biacore T200; CD3ε homodimer on CM4 chip;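 further: Single-residue variant antibodies injected as analyte over CD3ε homodimer immobilized by amine coupling, run at 25 °C in HBS-EP+ buffer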

T1 sequence (P07766 23-126 limits assumed): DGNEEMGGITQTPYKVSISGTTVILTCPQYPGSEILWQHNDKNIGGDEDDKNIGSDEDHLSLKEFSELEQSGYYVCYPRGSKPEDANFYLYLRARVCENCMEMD

ratio of amounts bound Z=Y/X (altered form / CE115HA000)	Binder
1.23	CE115HA000 Y100aG one-arm antibody (antibody, human IgG1, kappa, L234A L235A, N297A, name in Kabat numbering) heavy: QVQLVESGGGVVQPGRSLRLSCAASGFTFSNAWMHWVRQAPGKGLEWVAQIKAKSNNYATYYAESVKGRFTISRDDSKNSLYLQMNSLKTEDTAVYYCRYVHYGAYGGVDAWGQGTTVTVSSASTKGPSVFPLAPSSKSTSGGTAALGCLVKDYFPEPVTVSWNSGALTSGVHTFPAVLQSSGLYSLSSVVTVPSSSLGTQTYICNVNHKPSNTKVDKKVEPKSCDKTHTCPPCPAPEAAGGPSVFLFPPKPKDTLMISRTPEVTCVVVDVSHEDPEVKFNWYVDGVEVHNAKTKPREEQYASTYRVVSVLTVLHQDWLNGKEYKCKVSNKALPAPIEKTISKAKGQPREPQVYTLPPSRCELTKNQVSLSCAVKGFYPSDIAVEWESNGQPENNYKTTPPVLDSDGSFFLVSKLTVDKSRWQQGNVFSCSVMHEALHNHYTQKSLSLSPDYKDDDDK EPKSSDKTHTCPPCPAPELLGGPSVFLFPPKPKDTLMISRTPEVTCVVVDVSHEDPEVKFNWYVDGVEVHNAKTKPREEQYNSTYRVVSVLTVLHQDWLNGKEYKCKVSNKALPAPIEKTISKAKGQPREPQVCTLPPSRDELTKNQVSLWCLVKGFYPSDIAVEWESNGQPENNYKTTPPVLDSDGSFFLYSKLTVDKSRWQQGNVFSCSVMHEALHNRYTQKSLSLSP light: DIVMTQSPLSLPVTPGEPASISCRSSQSLVHSNRNTYLHWYQQKPGQAPRLLIYKVSNRFSGVPDRFSGSGSGTDFTLKISRVEAEDVGVYYCGQGTQVPYTFGQGTKLEIKRTVAAPSVFIFPPSDEQLKSGTASVVCLLNNFYPREAKVQWKVDNALQSGNSQESVTEQDSKDSTYSLSSTLTLSKADYEKHKVYACEVTHQGLSSPVTKSFNRGEC
0.9	CE115HA000 Y100aK one-arm antibody (antibody, human IgG1, kappa, L234A L235A, N297A, name in Kabat numbering) heavy: QVQLVESGGGVVQPGRSLRLSCAASGFTFSNAWMHWVRQAPGKGLEWVAQIKAKSNNYATYYAESVKGRFTISRDDSKNSLYLQMNSLKTEDTAVYYCRYVHYGAYKGVDAWGQGTTVTVSSASTKGPSVFPLAPSSKSTSGGTAALGCLVKDYFPEPVTVSWNSGALTSGVHTFPAVLQSSGLYSLSSVVTVPSSSLGTQTYICNVNHKPSNTKVDKKVEPKSCDKTHTCPPCPAPEAAGGPSVFLFPPKPKDTLMISRTPEVTCVVVDVSHEDPEVKFNWYVDGVEVHNAKTKPREEQYASTYRVVSVLTVLHQDWLNGKEYKCKVSNKALPAPIEKTISKAKGQPREPQVYTLPPSRCELTKNQVSLSCAVKGFYPSDIAVEWESNGQPENNYKTTPPVLDSDGSFFLVSKLTVDKSRWQQGNVFSCSVMHEALHNHYTQKSLSLSPDYKDDDDK EPKSSDKTHTCPPCPAPELLGGPSVFLFPPKPKDTLMISRTPEVTCVVVDVSHEDPEVKFNWYVDGVEVHNAKTKPREEQYNSTYRVVSVLTVLHQDWLNGKEYKCKVSNKALPAPIEKTISKAKGQPREPQVCTLPPSRDELTKNQVSLWCLVKGFYPSDIAVEWESNGQPENNYKTTPPVLDSDGSFFLYSKLTVDKSRWQQGNVFSCSVMHEALHNRYTQKSLSLSP light: DIVMTQSPLSLPVTPGEPASISCRSSQSLVHSNRNTYLHWYQQKPGQAPRLLIYKVSNRFSGVPDRFSGSGSGTDFTLKISRVEAEDVGVYYCGQGTQVPYTFGQGTKLEIKRTVAAPSVFIFPPSDEQLKSGTASVVCLLNNFYPREAKVQWKVDNALQSGNSQESVTEQDSKDSTYSLSSTLTLSKADYEKHKVYACEVTHQGLSSPVTKSFNRGEC
